Measurements from patent US11054430B2, “Compounds and methods for the detection of methotrexate” (Defined Diagnostics, LLC, priority 2015, dated 2021).
Numbering of substitutions follows the chain as printed.

B1: mAb 6D4: anti-methotrexate mouse monoclonal antibody; variable heavy chain SEQ ID NO:11, variable light chain SEQ ID NO:12 (antibody, V domains shown)
VH: QIQLVQSGPELKKPGETVKISCKASGYTFTNYGMNWVKRAPGKGLKWMGWINPYTGEPTYADDFKGRFAFSLETSASTAYLQINNLKNEDMATYFCARNDYYYALDSWGQGTSVTVSS
VL: DVVMTQSPLSLPVSLGDQASISCRSSQSLVKSNGNTYLHWFLQKSGQSPKLLIYKVSNRFSGVPDRFSGSGSGTDFTLKISRVEAEDLGVYFCSQSTHVPWTFGGGTKLEIK
modifications: mouse
B2: mAb 19A6: anti-methotrexate mouse monoclonal antibody; variable heavy chain SEQ ID NO:7, variable light chain SEQ ID NO:8 (antibody, V domains shown)
VH: QIQLVQSGPELKRPGETVKISCKASGYTYTYYGINWLKQAPGKDLKWMGWINPYTGEPAYADDFKGRFAFSLETSATTTYLQINNLKNEDMATYFCARNSYYYALDYWGQGTSVTVSS
VL: B1 VL with S7T, S14N, S28N, S45P
modifications: mouse
B3: mAb 10C7: anti-methotrexate mouse monoclonal antibody; variable heavy chain SEQ ID NO:3, variable light chain SEQ ID NO:4 (antibody, V domains shown)
VH: EVQLVESGGGLVKPGGSLRLSCAASGFTFRTYAMSWVRQTPEKRLEWVATITSGGTYIYYLDSVKGRFTISRDNAKNVLYLQMSSLRSEDTAMYYCVRLYGYDGMDYWGQGTSVTVSA
VL: QAVVTQESALTTSPGETVTLTCRSSTGAVSTSNYVNWVQEKPDHLFTGLIGGTKNRVPGVPARFSGSLIGDKAALTITGAQTEDEAIYFCALWYTNHLVFGGGTKLTVL
modifications: mouse

Assays:
Format in all cases: binding
Details in all cases: chemical spiked at 100 μM; calculated MTX concentration divided by 100 μM
[1] = MTX antibody cross-reactivity with 7-OH-MTX (competitive assay)
Description: (§1) The 4 selected MTX antibodies, 10C7, 45C11, 6D4, 19A6, were evaluated for cross-reactivity with MTX metabolites and related compounds (7-OH-MTX, DAMPA, Folic Acid and Folinic Acid). The amount of cross-reactivity with each chemical is defined as the percent ratio of the calculated MTX concentration of the chemical divided by 100 μM, which was the spiked concentration of the chemical.

[2] = MTX antibody cross-reactivity with DAMPA (competitive assay)
Description: as §1

[3] = MTX antibody cross-reactivity with Folic Acid (competitive assay)
Description: as §1

[4] = MTX antibody cross-reactivity with Folinic Acid (competitive assay)
Description: as §1

Row | Molecule | % Cross-Reactivity with 7-OH-MTX [1] | % Cross-Reactivity with DAMPA [2] | % Cross-Reactivity with Folic Acid [3] | % Cross-Reactivity with Folinic Acid [4]
1 | B1 | 0.91% | 0.52% | 0.48% | 0.24%
2 | B2 | 0.76% | 0.029% | 0.073% | 0.11%
3 | B3 | 0.37% | 0.43% | 0.24% | 0.28%
